T1: ILK ankyrin repeat domain W110A (human, UniProt Q13418 1-174, W110A)
T1 sequence (looked up): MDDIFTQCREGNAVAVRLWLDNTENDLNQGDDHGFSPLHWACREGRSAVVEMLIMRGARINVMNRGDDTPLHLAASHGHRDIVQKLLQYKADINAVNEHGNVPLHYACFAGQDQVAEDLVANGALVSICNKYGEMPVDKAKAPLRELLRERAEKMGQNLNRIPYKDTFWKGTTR

B1: soluble PINCH1 LIM1 domain, His tag removed (domain or fragment)
chain: ASATCERCKGGFAPAEKIVNSNGELYHEQCFVCAQCFQQFPEGLFYEFEGRKYCEHDFQMLFA
B2: ILK ankyrin repeat domain (ILK 1-174, from thrombin-cleaved GST-ILK 1-192) (domain or fragment, human, UniProt Q13418 1-174, looked up)
chain: T1 sequence (looked up) with A110W
B3: His-tagged PINCH2 LIM1 R12A (domain or fragment, human, UniProt Q7Z4I7-3 6-68, looked up)
chain: ANAVCQACQARFSPAERIVNSNGELYHEHCFVCAQCFRPFPEGLFYEFEGRKYCEHDFQMLFA
B4: His-tagged PINCH2 LIM1 (PINCH2 6-68) (domain or fragment, human, UniProt Q7Z4I7-3 6-68, looked up)
chain: B3 chain with A7R
B5: PINCH2 LIM1 domain (PINCH2 6-68), His tag removed (domain or fragment, human, UniProt Q7Z4I7-3 6-68, looked up)
chain: B3 chain with A7R

Numbering of substitutions follows the chain as printed. In names and notes the source's numbering stands. Where two headings read alike, the source gives them in different places.

Test [1] addresses B2. Nature of the test: pull-down.
The target in test [2] is B5. The test can be described thus: crystal structure.
The target of test [3] is B2. The test can be described thus: pull-down. This is another data set of the same source.
Test [4] concerns the target T1, ILK ankyrin repeat domain W110A. The test can be described thus: pull-down.
The target of test [5] is B2. The test can be described thus: pull-down. This is another data set of the same source.

Regarding B1, in test [1], the IC50 was 2900 nM.

Take B2: the “stoichiometry N” value in test [2] came to 1.

For the molecule B3, in test [3], the binding result is reported as “binds”.

As for B4, the binding result in test [4] was “binds”.

For B5, the values for the IC50 in test [5] and in test [1] were 4.4 µM and 2300 nM, respectively.

Usually IC50 stands for the concentration that inhibits the measured activity by half. Higher therefore signals a need for much substance. Usually stoichiometry N stands for a count of units in the complex or per binding partner.

The values above are taken from PMC2841223 (Journal of structural biology, 2009).
